Data reported in paper PMC10070764, “S100B chaperone multimers suppress the formation of oligomers during Aβ42 aggregation” (Frontiers in Neuroscience, 2023).

B1: tetrameric S100B (natural protein, human, UniProt P04271 1-92, looked up)
chain: MSELEKAMVALIDVFHQYSGREGDKHKLKKSELKELINNELSHFLEEIKEQEVVDKVMETLDNDGDGECDFQEFMAFVAMVTTACHEFFEHE
notes: Same chain as m1, isolated as the tetramer; used in the aggregation assays in the Ca^2+-free (apo) state (1.1 mM EDTA); also called apo-S100B tetramer; tetrameric apo-S100B; source: E. coli BL21 (DE3) E. Cline Express, purified to homogeneity
B2: dimeric S100B (natural protein, human, UniProt P04271 1-92, looked up)
chain: B1 chain
notes: also called S100B-Ca^2+ dimer; dimeric S100B-Ca^2+; source: E. coli BL21 (DE3) E. Cline Express, purified to homogeneity

How the values were obtained:
[1] = molecular target: the molecule itself; assay: SEC + other: electrophoresis; oligomeric state validation of the purified S100B dimer and tetramer preparations, as described (Figueira et al., 2022); conditions not given
[2] = molecular target: amyloid-β 1–42 (Aβ42) peptide (UniProt P05067 672-713); assay: cell-based or functional assay
Chain of amyloid-β 1–42 (Aβ42) peptide (P05067 672-713): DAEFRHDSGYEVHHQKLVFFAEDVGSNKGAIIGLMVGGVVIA

Binder | stoichiometry N [1] | ThT-subtracted X-34 kinetic traces of Aβ42 (2 μM) aggregation: X-34 positive AβO relative to Aβ42 alone, apo-S100B tetramer:Aβ42 ratios up to 0.5 (effect already at 0.25) [2] [%]
B1 | 4 | 25
B2 | 2 | 
